Results reported in patent publication US12129308B2, “MMP13 binding immunoglobulins” (Merck Patent GmbH, priority 2017, dated 2024).
Numbering of substitutions follows the chain as printed. Numbers in names are those of the source.

Assays:
temperature stress = format: physicochemical; conditions: forced oxidation and temperature stress conditions
Description: Nanobody samples (1-2 mg/ml) were stored in PBS for four weeks at −20° C. (negative control) 25 and 40° C. After this incubation period, Nanobodies were digested with Trypsin or LysC. Peptides of stressed and control samples were then analyzed by means of RPC on a Series 1290 machine (Agilent Technologies) over an Acquity UPLC BEH300-C18 column (Agilent Technologies) at 60° C. coupled to a Q-TOF mass spectrometer (6530 Accurate Mass Q-TOF (Agilent))
(§1) In order to assess potential PTM, forced oxidation and temperature stress was applied on the lead panel.

forced oxidation = format: physicochemical; conditions: forced oxidation and temperature stress conditions
Description: Nanobody samples (1 mg/ml) were subjected for four hours at RT and in the dark to 10 mM H2O2 in PBS, in parallel with control samples without H2O2, followed by buffer switch to PBS using Zeba desalting spin columns (0.5 ml) (Thermo Scientific). Stressed and control samples were then analyzed by means of RPC on a Series 1200 or 1290 machine (Agilent Technologies) over a Zorbax 300SB-C3 column (Agilent Technologies) at 70° C. Oxidation of Nanobodies was quantified by determination of % peak area of pre-peaks occurring as a result of oxidative stress, compared to the main protein peak.
as §1

[1] = analytical size exclusion chromatography (aSEC); format: physicochemical; conditions: main peak
Description: Analytical SEC experiments were performed on an Ultimate 3000 machine (Dionex) in combination with a Biosep-SEC-3 (Agilent) column.
The tendency for multimerisation and aggregation of a selected panel of 5 representative anti-MMP13 Nanobodies was investigated by analytical size exclusion chromatography (aSEC).

[2] = thermal shift assay (TSA); format: physicochemical; conditions: for Tm at pH 7: pH 7, monovalent Nanobodies; for TSA Tm (° C.)@ pH 7: C0101517A01 2nd round sequence optimization variants
Description: TSA was carried out with 5 μl of purified monovalent Nanobodies in essence according to Ericsson et al. (2006 Anals of Biochemistry, 357: 289-298).
The thermal stability of the wildtype anti-MMP13 Nanobodies was investigated in a thermal shift assay (TSA).

SDS-Page = format: physicochemical
MMP13 [3] = molecular target: T1, MMP13 (Homo sapiens, UniProt P45452); test: fluorogenic peptide assay for sequence optimization variants and NNK libraries (species not stated); format: biochemical; conditions: C0101517A01 2nd round sequence optimization variants
Description: (§2) The setup of human, cynomolgus, rat, dog and bovine MMP13 fluorogenic peptide assays, as well as human MMP1 and MMP14 fluorogenic peptide assays is in brief as follows: activated MMP was incubated with fluorogenic peptide substrate Mca-PLGL-Dpa-AR-NH2 (R&D Systems #ES001) and a ⅕ dilution of periplasmic extract or a dilution series of purified Nanobody/positive control (total volume=20 μl in assay buffer 50 mM Tris pH 7.5, 100 mM NaCl, 10 mM CaCl2, 0.01% Tween20), for 2 h at 37° C.
However, the degree of isomerization and oxidation differed at the assessed conditions and were just below or above the applied threshold in each case. Eventually, amino acid residues 54-55, 100d-100e, M100j and 101-102 were identified as the residues responsible for the PTM. […] In order to attempt accommodating the different requirements, […] were constructed in which these residues were mutated, and subsequently screened in the fluorogenic peptide assay to evaluate possible potency losses as well as screened for biophysical properties (Tm).
Eventually, amino acid residues N100b and N101 were identified as residues sensitive to deamidation via temperature stress experiments. However, these residues are located in the CDR3 region, and potentially involved in target binding. Thus, knocking out the deamidation sites could have an impact on binding.

rat MMP13 = rat MMP13 (Rattus norvegicus, UniProt P23097); test: adapted (more sensitive) rat fluorogenic peptide assay; format: biochemical; conditions: 0.15 nM MMP13 instead of 1.33 nM
Description: as §2
As best species cross-reactive binder (cf. Example 6.4.2) Nanobody 40E09 was selected as representative of profile 1 Nanobodies. For profile 2, three Nanobodies were selected: 516G08, 62C02 and 517A01. Profile 1 and profile 2 Nanobodies were combined in a bivalent format with a 35GS linker (see Table 6.5; Nb(A)-35GS-Nb(B)). The bivalent Nanobodies were cloned into pAX205, transformed into P. pastoris, expressed and purified according to standard procedures. […] Bivalent constructs were tested in this adapted fluorogenic peptide assay as well as in the human fluorogenic collagen assay.

MMP13 [4] = molecular target: T1, MMP13; test: human MMP13 fluorogenic peptide assay; format: biochemical
Description: as §2
(§3) The potency/efficacy of the Nanobodies was tested in the fluorogenic peptide assay, set up for different MMP13 orthologues and in the human collagenolytic assay (both assays were also used during screening, see Example 6.3). In addition, a second collagen-based assay (fluorogenic collagen assay) using higher Collagen concentrations in comparison with the collagenolytic assay was established to simulate the high Collagen concentration conditions in cartilage in which the MMP13 inhibitor is expected to be active. In this assay the fluorescence of the intact FITC-labelled Collagen substrate is low due to the reciprocal quenching effect of the fluorophores. Upon cleavage, quenching is lost and fluorescence increases.

human full-length MMP13 = human full-length MMP13 (Homo sapiens, UniProt P45452); test: competition ELISA against biotinylated 40E09 (epitope binning); format: binding; conditions: 0.6 nM biotinylated 40E09
Description: FIG. 3: Competition ELISA with 0.6 nM biotinylated 40E09 against a panel of profile 1 and profile 2 Nanobodies on human full-length MMP13, coated via mouse anti-human MMP13 mAb (R&D Systems #MAB511). MMP13 was activated via incubation with APMA for 90 min at 37° C.
For epitope-binning a panel of monovalent Nanobodies derived from profile 1 and profile 2 were tested in a competition ELISA against the purified Nanobody 40E09 (profile 1).

activated MMP13 [5] = molecular target: T2, activated MMP13 (Homo sapiens, UniProt P45452); test: human collagenolytic assay (human Collagen II); format: biochemical; conditions: low Collagen concentration conditions
Description: The setup of this assay is in brief as follows: 250 ng/ml immunization grade human Collagen II (Chondrex #20052) was incubated with 5 nM activated MMP13 in 100 μl assay buffer (50 mM Tris-Cl pH 7.5, 100 mM NaCl, 10 mM CaCl2, 0.01% Tween-20). After 1.5 h incubation at 35° C., the reaction was neutralized with EDTA (10 μl of 30 mM stock). […] Remaining intact Collagen was detected via ELISA (reagents provided in Type II Collagen Detection kit (Chondrex #6009)).

activated MMP13 [6] = molecular target: T2, activated MMP13; test: human fluorogenic collagen assay (DQ Collagen type I); format: biochemical; conditions: Table 6.5
Description: In brief, the setup of this assay is as follows: 100 μg/ml DQ™ Collagen, type I from Bovine skin (fluorescein conjugate; Molecular Probes #D-12060 lot 1149062) was incubated with 10 nM activated MMP13 and a dilution series of purified Nanobody/positive control, for 2 h at 37° C. in 40 μl assay buffer (50 mM Tris-Cl pH 7.5, 100 mM NaCl, 10 mM CaCl2, 0.01% Tween-20).
as §3
In FIG. 1 the dose response curves for inhibition of activated human MMP13 when using high concentrations of bovine Collagen I (fluorogenic Collagen assay) are depicted.

B1: 80A01: anti-MMP13 Nanobody, profile 2, SEQ ID NO: 12 (protein)
VHH: EVQLVESGGGLVQPGGSLRLSCAASGFTLAYYSIGWFRQAPGKEREGVSCISSGIDGSTYYADSVKGRFTISRDNAKNTMYLQMNNLKPEDTGVYYCAADPSHYYSEYDCGYYGMDYWGKGTLVTVSS
Temperature stress
  Asp-isomerization: prone to Asp-isomerization
Forced oxidation
  Met-oxidation: prone
[1]
  relative area: 95%
[2]
  Tm at pH 7: 68.6 °C

B2: 529C12: anti-MMP13 Nanobody, profile 2, SEQ ID NO: 9 (protein)
VHH: DVQLVESGGGLVQPGGSLRLSCVASGSIFSINAMGWYRQAPGKQRELVAAISSGGSTYYADSVKGRFTISRDNSKNTVYLQMNSLRPEDTAVYYCNAAVDASRGLPYELYYYWGQGTLVTVSS
SDS-Page
  SDS-Page results: 1 band
[1]
  relative area: 100%
[2]
  Tm at pH 7: 82.7 °C

B3: 62C02: anti-MMP13 Nanobody, profile 2, SEQ ID NO: 11 (protein)
VHH: EVQLVESGGALVRPGGSLRLSCAASGFAFSAAYMSWVRQAPGRGLEWVSSISDDGSKTYYADSVKGRFTISRDNAKNTVYLQMNNLKPDDTAVYYCNTGYGATTTRPGRYWGQGTQVTVSS
[1]
  relative area: 100%
[2]
  Tm at pH 7: 76.4 °C

B4: 516G08: anti-MMP13 Nanobody, profile 2, SEQ ID NO: 13 (protein)
VHH: DVQLVESGGGLVQPGGSLRLSCAGSGSIFRINVMAWYRQAPGKQRELVAAITSGGTTNYADSVKGRFTISRDNSKNTVYLQMNSLRPEDTAVYYCYADIGWPYVLDYDFWGQGTLVTVSS
[2]
  Tm at pH 7: 65.2 °C

B5: 517A01: anti-MMP13 Nanobody, profile 2, SEQ ID NO: 10; C010100087 is the parental of Table 6.7.1D (protein)
VHH: DVQLVESGGGLVQPGGSLRLSCAASGRTFSSYAMGWFRQAPGKEREFVAAISWSGGSTYYADSVKGRFTISRDNSKNTVYLQMNSLRPEDTAVYYCTAALAVYGPNRYRYGPVGEYNYWGQGTLVTVSS
Temperature stress
  deamidation: prone to deamidation
SDS-Page
  SDS-Page results: 1 band
[1]
  relative area: 100%
[2]
  Tm at pH 7: 77.8 °C
  TSA Tm (° C.)@ pH 7: 78 °C

B6: C010100649: C0101517A01 sequence optimization variant, mutations N100bS, N101Q (protein)
VHH: B5 VHH with N106S, N117Q
MMP13 [3]
  IC50: 2 nM
[2]
  TSA Tm (° C.)@ pH 7: 79 °C

B7: C010100647: C0101517A01 sequence optimization variant, mutations N100bQ, N101V (protein)
VHH: B5 VHH with N106Q, N117V
MMP13 [3]
  IC50: 2.1 nM
[2]
  TSA Tm (° C.)@ pH 7: 81 °C

B8: C010100650: C0101517A01 sequence optimization variant, mutations N100bS, N101V (protein)
VHH: B5 VHH with N106S, N117V
MMP13 [3]
  IC50: 2.1 nM
[2]
  TSA Tm (° C.)@ pH 7: 81 °C

B9: C010100648: C0101517A01 sequence optimization variant, mutations N100bQ, N101Q (protein)
VHH: B5 VHH with N106Q, N117Q
MMP13 [3]
  IC50: 2.8 nM
[2]
  TSA Tm (° C.)@ pH 7: 81 °C

B10: 40E09: anti-MMP13 Nanobody, profile 1, SEQ ID NO: 1 (protein)
VHH: EVQLVESGGGSVQAGGSLRLSCAASGSTFSRYSMNWYRQAPGKQREFVAGISVGRITNYAVSVRGRFTISRDNAEGTGYLQMNSLKPEDTAVYYCNAGGLQGYWGLGTQVTVSS
SDS-Page
  SDS-Page results: 1 band
Rat MMP13
  IC50 (adapted) rat fluorogenic peptide assay: neutral
MMP13 [4]
  inhibition in the fluorogenic peptide assay (screening): incomplete inhibition
Human full-length MMP13
  competition with 40E09 in competition ELISA: compete with 40E09
[1]
  relative area: 100%
Activated MMP13 [5]
  efficacy / inhibition in the collagenolytic assay: positive
Activated MMP13 [6]
  IC50 human fluorogenic collagen assay: partial
[2]
  Tm at pH 7: 68.6 °C
